The labels stand for the following.
B1: Friend leukemia integration 1 transcription factor, residues 116 to 197; numbered along this chain, Q01543 (parent)
chain: NMTTNERRVIVPADPTLWTQEHVRQWLEWAIKEYSLMEIDTSFFQNMDGKELCKMNKEDFLRATTLYNTEVLLSHLSYLRES

± gives the uncertainty stated by the source.

Variants of B1 are the subject of the data set. As to the kind of experiment: abundance fitness (aPCA) (normalised: wild type 0, dead -1); higher = more abundant; growth selection in yeast, the domain comes from the species named. Particulars: Homo sapiens.
For the variant NMTTNERRVCVPADPTLWTQEHVRQWLEWAIKEYSLMEIDTSFFQNMDGKELCKMNKEDFLRATTLYNTEVLLSHLSYLRES, the abundance fitness was -0.258 ± 0.17.

On to NMTTNERRVEVPADPTLWTQEHVRQWLEWAIKEYSLMEIDTSFFQNMDGKELCKMNKEDFLRATTLYNTEVLLSHLSYLRES, for which the abundance fitness was found to be 0.231 ± 0.08.

Regarding NMTTNERRVIVPADPTLWTQEHVRQWLEWAIKEYSFMEIDTSFFQNMDGKELCKMNKEDFLRATTLYNTEVLLSHLSYLRES, the abundance fitness was -0.195 ± 0.17.

In the case of NMTTNERSVIVPADPTLWTQEHVRQWLEWAIKEYSLMEIDTSFFQNMDGKELCKMNKEDFLRATTLYNTEVLLSHLSYLRES, the abundance fitness was -0.215 ± 0.09.

As to NMTTNERCVIVPADPTLWTQEHVRQWLEWAIKEYSLMEIDTSFFQNMDGKELCKMNKEDFLRATTLYNTEVLLSHLSYLRES, the abundance fitness is -0.301 ± 0.26.

As for NMTTNERRVIVPADPTLWTQEHVRQWLEWAIKEYELMEIDTSFFQNMDGKELCKMNKEDFLRATTLYNTEVLLSHLSYLRES, the abundance fitness is -0.101 ± 0.08.

As for NMTTNERRVIVPADPTLWTQEHVRQWLEWAIKEYSLMEIDTSFFQNMDGKELCEMNKEDFLRATTLYNTEVLLSHLSYLRES, the abundance fitness came to 0.1 ± 0.094.

As to NMTTNERRVIVPADPTLWTQEAVRQWLEWAIKEYSLMEIDTSFFQNMDGKELCKMNKEDFLRATTLYNTEVLLSHLSYLRES, the abundance fitness was -0.318 ± 0.15.

For the variant NMGTNERRVIVPADPTLWTQEHVRQWLEWAIKEYSLMEIDTSFFQNMDGKELCKMNKEDFLRATTLYNTEVLLSHLSYLRES, the abundance fitness is -0.098 ± 0.11.

NMETNERRVIVPADPTLWTQEHVRQWLEWAIKEYSLMEIDTSFFQNMDGKELCKMNKEDFLRATTLYNTEVLLSHLSYLRES: the abundance fitness was -0.392 ± 0.3.

Regarding NMTTNERRVIVPADPTLWTQEHVRQWLEWAIKEYSLMEIDTSDFQNMDGKELCKMNKEDFLRATTLYNTEVLLSHLSYLRES, the abundance fitness was -0.175 ± 0.26.

On to NMTTNERRVIVPADPTLWTQEHVRQWLEWAIKEYSLMEIDTSFFQNMDGKELCKMWKEDFLRATTLYNTEVLLSHLSYLRES, for which the abundance fitness is -0.221 ± 0.087.

On to NMTTNERRVIVPADPTLWTQEHVRQWLEWAIKEYSLMEIDTSFFQNMDGKELCKMGKEDFLRATTLYNTEVLLSHLSYLRES, for which the abundance fitness was 0.049 ± 0.074.

For the variant NMTTNERRVIVPADPTLWTQEHVREWLEWAIKEYSLMEIDTSFFQNMDGKELCKMNKEDFLRATTLYNTEVLLSHLSYLRES, the abundance fitness was -0.334 ± 0.27.

As for NMTTNERRVIVPADPTLWTQEHVRQWLEWAIKELSLMEIDTSFFQNMDGKELCKMNKEDFLRATTLYNTEVLLSHLSYLRES, the abundance fitness is -0.227 ± 0.061.

With NMTTNERRVIVPADTTLWTQEHVRQWLEWAIKEYSLMEIDTSFFQNMDGKELCKMNKEDFLRATTLYNTEVLLSHLSYLRES, the abundance fitness is -0.42 ± 0.08.

Turning to NMTTNERRVIVPADITLWTQEHVRQWLEWAIKEYSLMEIDTSFFQNMDGKELCKMNKEDFLRATTLYNTEVLLSHLSYLRES, the abundance fitness was -0.028 ± 0.085.

Turning to NMTTNERRVIVPADPTLWTQEHVRQWLEWAIKEYSLMEIDTSFFQNMDGKELCKMNKEDFLRATTLYNTQVLLSHLSYLRES, the abundance fitness is -0.078 ± 0.11.

As to NMTTNERRVIVPADPTLWTQEHVRQWLEWAIKEYSLMEIDTSFFQNMDGKELCKMNKEDFLRATTLYNTKVLLSHLSYLRES, the abundance fitness is -0.167 ± 0.12.

Regarding NMTTNHRRVIVPADPTLWTQEHVRQWLEWAIKEYSLMEIDTSFFQNMDGKELCKMNKEDFLRATTLYNTEVLLSHLSYLRES, the abundance fitness is -0.377 ± 0.49.

For NMTTNQRRVIVPADPTLWTQEHVRQWLEWAIKEYSLMEIDTSFFQNMDGKELCKMNKEDFLRATTLYNTEVLLSHLSYLRES, the abundance fitness is -0.174 ± 0.15.

As for NMTTNERRVIVPADPTLWTQEHVRQWLEWAIKEYSLMEIDTSFFCNMDGKELCKMNKEDFLRATTLYNTEVLLSHLSYLRES, the abundance fitness was -0.081 ± 0.12.

On to NMTTNERRVIVPADPTLWTQEHVRQWLEWAIKEYSLMEIDTSFFGNMDGKELCKMNKEDFLRATTLYNTEVLLSHLSYLRES, for which the abundance fitness is -0.04 ± 0.07.

With NMTTNERRVIVPADPTLWTQEHVRQWLEWAIKEYSLMEIDTSFFQNMDGKELCKMNKEDFLCATTLYNTEVLLSHLSYLRES, the abundance fitness is -0.23 ± 0.26.

Turning to NMTTNERRVIVPADPTLWTQEHVRQWLEWAIKEYSLMEIDTSFFQNMDGKELCKMNKEDFLNATTLYNTEVLLSHLSYLRES, the abundance fitness is -0.021 ± 0.16.

Regarding NMTTNERRVIVPADPTLWTQEHVRQWLEWAIKEYSLMEIQTSFFQNMDGKELCKMNKEDFLRATTLYNTEVLLSHLSYLRES, the abundance fitness is -0.252 ± 0.17.

For NMTTNERRVIVPADPTLWTQEHVRQWLEWAIKEYSLSEIDTSFFQNMDGKELCKMNKEDFLRATTLYNTEVLLSHLSYLRES, the abundance fitness was -0.078 ± 0.092.

Take NMTTNERRVIVPADPTLWTQEHVRQWLEWAIKEYSLMEIDTSFFQNMDGKELCKMNKEDFLRATTLYNTEVFLSHLSYLRES: the abundance fitness was -0.231 ± 0.12.

As for NMTTNERRVIVPADPTLWTQEHVRQWLEYAIKEYSLMEIDTSFFQNMDGKELCKMNKEDFLRATTLYNTEVLLSHLSYLRES, the abundance fitness was -0.058 ± 0.12.

On to NMTTNERRVIVPADPTLWTQEHVRQWLEKAIKEYSLMEIDTSFFQNMDGKELCKMNKEDFLRATTLYNTEVLLSHLSYLRES, for which the abundance fitness was found to be 0.005 ± 0.081.

Turning to NMTTNERRVIVPADPTLWTQEHVRQWLEWAIKEYSLMEIDTSFFQNMDGKELCKINKEDFLRATTLYNTEVLLSHLSYLRES, the abundance fitness is -0.381 ± 0.19.

Turning to NMTTNERRVIVPADPTLWTQEHVRQWLEWAIKEYSLMEIDTSFFQNMDGKELCKTNKEDFLRATTLYNTEVLLSHLSYLRES, the abundance fitness was -0.204 ± 0.11.

In the case of NMTTNERRVIVPADPTLWTQEHVRQWLEWAIKEYSLMEIDTSFFQNMDGKELCKMNEEDFLRATTLYNTEVLLSHLSYLRES, the abundance fitness is -0.135 ± 0.077.

Values taken from the Human Domainome abundance scans (Beltran et al. 2025).
